This data set in a line: yeast display, Sf9 membrane polyspecificity reagent, FACS + sequencing; frameworks hold sequencing errors. An outline of the steps:
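Galactose-induced (36–48 hours) yeast carrying a synthetic nanobody display library were exposed to 10% biotinylated, detergent-solubilized Sf9 membrane reagent at 4 °C for 1 hour. FACS followed streptavidin microbead enrichment, using low and high (top ~1%) gates for expression (anti-HA) and reagent binding (streptavidin). Colony PCR, MiSeq 2 × 250 sequencing and CDR-length filtering followed. Labels for polyreactivity reflect the gate of origin.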
As to “QVQLVESGGGLVQAGGSLRLSCAASGRIFNSYAMGWYRQAPGKERELVAAINWTDVSTYYADSVKGRFTISRDNAKNTVYLQMNSLKPEDTAVYYFAAVRWGSYTLSDDYWGQGTQVTVSS”, the “polyreactivity (PSR sort gate)” value is on record as “low polyreactivity”.
The entry for “QVQLVESGGGLVQAGGSLRLSCAASGRIFNVNVMGWYRQAPGKERELVASINWSGTSTYYADSVKGRFTISRDNAKNTVYLQMNSLKPEDTAVYYCAADLALYNTLYLTLPDYYWGQGTQVTVSS” is “low polyreactivity”.
Regarding “QVQLVESGGGLVQAGGSLRLSCAASGRIFNWYVMGWYRQAPGKERELVAAINSGGITKYADSVKGRFTISRDNAKNTVYLQMNSLKPEDTAVYYCAAYYRRYDYDYWGQGTQVTVSS”, the “polyreactivity (PSR sort gate)” value is listed as “high polyreactivity”.
The entry for “QVQLVESGGGLVQAGGSLRLSCAASGRIFNYNAMGWYRQAPGKERELVAAITRSTGNTYYADSVKGRFTISRDNAKNTVYLQMNSLKPEDTAVYYCAAAYAYWRKYDYWGQGTQVTVSS” is “high polyreactivity”; for “QVQLVESGGGLVQAGGSLRLSCAASGRIFNYYAMGWSRQAPGKERELVAAIRTGGSTYYADSVKGRFTISRDNAKNTVYLQMNSLKPEDTAVYYCARLVYYSSPYGYWGQGTQVTVSS” it is “high polyreactivity”; for “QVQLVESGGGLVQAGGSLRLSCAASGRIFNYYAMGWYRQAHGKERELVAVITYSAGRTYYADSVKGRFTISRDNAKNTVYLQMNSLKPEDTAVYNCNADGWVSVSKHYYYWGQGTQVTVSS” it is “low polyreactivity”.
“QVQLVESGGGLVQAGGSLRLSCAASGRIFPAYAMGWYKQAPGKERELVASIRRGGITYADSVKGRFTISRDNAKNTVYLQMNSLKPEDTAVYYCNADYRGWGYHMDYWGQGTKVTVSS”: the “polyreactivity (PSR sort gate)” value was “low polyreactivity”.
As to “QVQLVESGGGLVQAGGSLRLSCAASGRIFPAYAMGWYRKAPGKETELVAAISWRSGSTYYAHSVKGRFTISRDNAKNTVYLQMNSLKPEDTAVYYCAAEYDWPGYDYWGQGTQVTVSS”, the “polyreactivity (PSR sort gate)” value is recorded as “high polyreactivity”.
For the sequence “QVQLVESGGGLVQAGGSLRLSCAASGRIFPDNTMGWSRQAPGKERELVAVITYSGGSTYYADSVKGRFTISRDNAKNTVYLQMNSLKPEDTAVYYCAKTLGSQNYDFDYWGQGTQVTVSS”, the “polyreactivity (PSR sort gate)” value is reported as “low polyreactivity”.
As for “QVQLVESGGGLVQAGGSLRLSCAASGRIFPDNTMGWYRQAPGTERELVAAITSSGGSTYYADSVKGRFTISRDNAKNTVYLQMNSLKPEDTAVYYCAAAVKRGYAQSFISDGYGYWGQGTQVTVSS”, the “polyreactivity (PSR sort gate)” value is on record as “low polyreactivity”.
For “QVQLVESGGGLVQAGGSLRLSCAASGRIFPFNAMGWYRQAPGKEREFVAAIRLSGTRTYYADSVKGRFTISRDNAKNTVYLQMNSLKPEDTAVYYCAAKYSGHYYNYDYWGQGTQVSVSS”, the “polyreactivity (PSR sort gate)” value is “high polyreactivity”.
In the case of “QVQLVESGGGLVQAGGSLRLSCAASGRIFPFYDMGWYRQAPGKERELVAAISTSGGSTYYADSVKGRFTISRDNAKNTVYLQMNSLKPEDTAVYYCNAQRALRSTYDSWGQGTQVTVSS”, the “polyreactivity (PSR sort gate)” value is recorded as “low polyreactivity”.
With “QVQLVESGGGLVQAGGSLRLSCAASGRIFPGNAMGWYRQAPGKESELVAAISKSGGSTYYADSVKGRFTISRDNAKNTVYLQMNSLKPEDTAVYYCAKLYYPVSDQYDYYYWGQGTQVTVSS” the entry was “low polyreactivity”; with “QVQLVESGGGLVQAGGSLRLSCAASGRIFPGNPMGWYRQATGQERELVAGISFSGGRTYYADSVKGRFTISRDNAKNTVYLQIISLKPEDTAVYYCATKYQQHCWSYDYWGQGTQVTVSS”, “low polyreactivity”; with “QVQLVESGGGLVQAGGSLRLSCAASGRIFPGNTMGWYRQAPGKERELVAAISSSTGNTYYADSVKGRFTISRDNAKNTVYLQMNSLKPEDTAVYYCAARTRQISIVGYNYWGQGTQVTVSS”, “high polyreactivity”.
Turning to “QVQLVESGGGLVQAGGSLRLSCAASGRIFPGYAMGLYRQAPGKERELVAAISKGGGSTSYADSVKGRFTISRDNAKNTVYFQMNSLKPEDTAVYFCAARQAWRWTYDYWGQGTQVSVSS”, the “polyreactivity (PSR sort gate)” value is recorded as “high polyreactivity”.
In the case of “QVQLVESGGGLVQAGGSLRLSCAASGRIFPGYAMGWYRPAPGKERELVAAISKSGVSTYYADSVKGRFTISCDNAKNTVYLQMNSLKPEDTAVYYCAAVSYSYFSRGYRTFQLAYWGQGTQVTVSS”, the “polyreactivity (PSR sort gate)” value is “high polyreactivity”.
Turning to “QVQLVESGGGLVQAGGSLRLSCAASGRIFPHYAKGWYRQAPGKERELVAAISSGGRTNYADSVKGRFTISRDNAKNTVYIQMNSLKPEDTAVYYYAVDDYVYEMDYWGQGTQVTVSS”, the “polyreactivity (PSR sort gate)” value is “high polyreactivity”.
“QVQLVESGGGLVQAGGSLRLSCAASGRIFPISAMGWYRQAPGKERVLVAAIDSGGSTTYADSVKGRFTISRDNEKNTVYLQMNSLKPEDSADYYCAAKGAYPYWYPVGYRYDYWGQGTQVTVSS”: the “polyreactivity (PSR sort gate)” value is listed as “low polyreactivity”.
Regarding “QVQLVESGGGLVQAGGSLRLSCAASGRIFPIYAMGWYRQAPGKERELVAAISRTDGTTYYADSVKGRFTISRDYANNTVYLQMNSLKPEDTAVYYCAADYLRAPYYQYEYWGQGTQVTVSS”, the “polyreactivity (PSR sort gate)” value was “low polyreactivity”.
Regarding “QVQLVESGGGLVQAGGSLRLSCAASGRIFPKYAMGWYRQAPGKERELVAAIRWSGGNTYYADSVKGRFTISRDNAKNTVYLQMNSLKPEDTAVYYCAATPYVSKYYYFGHDYWGQGTQVTVSS”, the “polyreactivity (PSR sort gate)” value is recorded as “high polyreactivity”.
The entry for “QVQLVESGGGLVQAGGSLRLSCAASGRIFPNNAMGWYRQAPGKERELVAAITSIGGSTYYADSVKGRFTISRDNAKNTVYLQMNSLKPEDTAVYYCAARWERFVPTGRFSYYYYYWGQGTQVTVSS” is “high polyreactivity”.
With “QVQLVESGGGLVQAGGSLRLSCAASGRIFPPYAMGWYRQAPGKERELVAAISSSTTSTYYADSVKGRFTISRDNAKNTVYLQMNSLKPEDTADYYCAATGKGSYGYWGQGTQVTVSS”, the “polyreactivity (PSR sort gate)” value is reported as “low polyreactivity”.
On to “QVQLVESGGGLVQAGGSLRLSCAASGRIFPQNAMGWYRQAPGKERELVAAITSDGAITYYADSVKGRFTISRDNAKNTVYLQMNSLKPEDTAVYYCATQGRYYDYDYWGQGTQVTVSS”, for which the “polyreactivity (PSR sort gate)” value is “low polyreactivity”.
Consider “QVQLVESGGGLVQAGGSLRLSCAASGRIFPQYAMGWYRQAPGKERELVAGITSVGSTYYADSVKGRFTISRDNAKTTVYLQMNSLKPEDTAVFYCAAVPSRYVRANRRTYRYYYWGQGTQVTVSS”, for which the “polyreactivity (PSR sort gate)” value is given as “high polyreactivity”.
On to “QVQLVESGGGLVQAGGSLRLSCAASGRIFPRNAMGWYRQAPGKERELVAAISQSGTSTYYADSVKGRFTISRDNAKNTVYLQMNSLKPEDTAVYYCAAVSSSGYYWGQGTQVTVSS”, for which the “polyreactivity (PSR sort gate)” value is reported as “low polyreactivity”.
The entry for “QVQLVESGGGLVQAGGSLRLSCAASGRIFPRNTMGWYRQAPGKQRELVAAISTRGGSTYYADSVKGRFTISRDNAKNTVYLQMNSLKPEDTAVYYCAAGRRFPAIYSTGNYWGQGTQVTVSS” is “high polyreactivity”; for “QVQLVESGGGLVQAGGSLRLSCAASGRIFPRYAMGWYRQAPGKERELVAAITSSGTSTYYADSVKGRFTISRDNAKNTVYLQMNSLKPEDTAVYYCNAVKYARWGYDYWGQGTQVTVSS” it is “high polyreactivity”; for “QVQLVESGGGLVQAGGSLRLSCAASGRIFPRYGMGWYRQAPGKERELVADITSSGSTYADSVKGRFTISRDNAKNTVYLQMNSLKPEDTAVYYCNALYRRLSYSWRYRQLYDYWGQGTQVTVSS” it is “high polyreactivity”.
The entry for “QVQLVESGGGLVQAGGSLRLSCAASGRIFPRYVMGWYRQAPGKERELVAAITYRGGSTSYADSVKGRFTISRDNAKNTVYLQMNSLKPEDTAVYYCNAKSLYYNYAYDYWGQGTQVTVSS” is “high polyreactivity”.
With “QVQLVESGGGLVQAGGSLRLSCAASGRIFPTNAMGWYRQAPGKERELVASIDSGGSTKYADSVKGRFTISRDNAKNTVDLQMNSLKPEDTTVYYRALQVLNYDYWGQGTQVTVSS” the entry was “low polyreactivity”.
Turning to “QVQLVESGGGLVQAGGSLRLSCAASGRIFPTNAMGWYTQAHGKEREFVSAITWRGGSTYYADSVKGRFTISRDNAKNTVYLQMNSLKPEDTAVYYCAATGHIVFFRADDYGYWGQGTQVTVSS”, the “polyreactivity (PSR sort gate)” value was “low polyreactivity”.
In the case of “QVQLVESGGGLVQAGGSLRLSCAASGRIFPTYTMGWYRQAPGKERELVAAISGRGGNTYYADSVKGRFTISRDNAKNTVYLQMNSLKPEDTAVYYCAARYPVRNGYWGQGTQVTVSS”, the “polyreactivity (PSR sort gate)” value is on record as “high polyreactivity”.
On to “QVQLVESGGGLVQAGGSLRLSCAASGRIFPVYAMGWYRQAPGKEREFVAAIRGTGTSTYYADSVKGRFTISRDNAKNTVYLQMNSLKPEDTAVYYCAASAGYAYNYWGQGTQVTVSS”, for which the “polyreactivity (PSR sort gate)” value is on record as “low polyreactivity”.
Take “QVQLVESGGGLVQAGGSLRLSCAASGRIFPVYAMGWYRQAPGKERELVAAIDYSDGSTYYADSVKGRFTISRDNAKNTVYLQMNSLKPEDTAVYYCAADYDAIYLWWGYDYWGQGTQVTVSS”: the “polyreactivity (PSR sort gate)” value is “low polyreactivity”.
Turning to “QVQLVESGGGLVQAGGSLRLSCAASGRIFPVYAMGWYRQAPGKERELVAAISKRDGSTSYADSVKGRFTISRDNAKNTVYLEMNSLKPEDTAVYYCAATYLLERPTSIHPRYDYWGQGTQVTVSS”, the “polyreactivity (PSR sort gate)” value is recorded as “low polyreactivity”.
Take “QVQLVESGGGLVQAGGSLRLSCAASGRIFPVYTMGWYRQAPGKERELVAAISGNGASTYYADSVKGRFTISRDNAKNTVYLQMNSLKPEDTAVYYCAAYFYYWGSTFVRYEYWGQGTQVTVSS”: the “polyreactivity (PSR sort gate)” value is “high polyreactivity”.
As for “QVQLVESGGGLVQAGGSLRLSCAASGRIFPWYTMGWYRQAPGKERELVAAITSGGNTDYADSVKGRFTISRDNAKNSVYLQMNSLKPEETAVYYCAAGGYPGTTYYGYDYWGQGTQVTVSS”, the “polyreactivity (PSR sort gate)” value is “low polyreactivity”.
As to “QVQLVESGGGLVQAGGSLRLSCAASGRIFPYMGWYRQAPGKERELVAAISSRGGNTYYADSVKGRFTISRDNAKNTVYLQMNSLKPEDTAVYYCNKVKYTWYDWGQGTQVTVSS”, the “polyreactivity (PSR sort gate)” value is listed as “high polyreactivity”.
With “QVQLVESGGGLVQAGGSLRLSCAASGRIFPYYAIGWYRQAPGKERELVASTNYADSVKGRFTISRDNAKNTVYLQMNSLKPEDTAVYYCNADSVYPPGSDYVVRDGNFDYWGQGTQVTVSS”, the “polyreactivity (PSR sort gate)” value is “low polyreactivity”.
The entry for “QVQLVESGGGLVQAGGSLRLSCAASGRIFPYYAKRWYRQAPGKERELVAAITTRGGSTYDADSVKGRFTISRDNAKNTVYLQMNSLKPEDTAVYYCAAVTFGRMEYCGQGTQVTVSS” is “low polyreactivity”.

The values above are taken from the nanobody polyreactivity screen of Harvey et al. (2022).
